Test results from the supplement of paper PMC12042874.
± gives the uncertainty stated by the source.

Assay: amyloid nucleation score (Sup35N fusion, yeast selection) (log enrichment); library NNK3; higher = more nucleation; inactive = no reads after selection
In short: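 The nucleation score equals the log enrichment of output over input reads from DiMSum, centred on the mode score of non-aggregating sequences. It was computed only for sequences with 100 or more input reads. The reads came from Illumina sequencing of plasmid inserts from psi-negative yeast expressing Sup35N fused to peptides of 20 random codons, induced with 100 μM copper sulfate for 24 hours and grown 7 days at 30°C without adenine and uracil.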

Substance: CIAMGTISFQFPVLMRYYLC
- amyloid nucleation score: inactive

Substance: CILYLHIAALVLLI
- amyloid nucleation score: -1.33 ± 2.5

Substance: CINVFMQEPPPINIRWNCRE
- amyloid nucleation score: 2.54 ± 0.061

Substance: CITSNVMRSSRLKLV
- amyloid nucleation score: inactive

Substance: CKCYYGTSDFCGVGFETASR
- amyloid nucleation score: inactive

Substance: CKFCFSAIFSLLYNRIGAPQ
- amyloid nucleation score: inactive

Substance: CKKGRLVGRSRCLVCWMCCM
- amyloid nucleation score: -0.155 ± 0.96

Substance: CKLCTFSKRLNLTFRMVASL
- amyloid nucleation score: inactive

Substance: CKMLNYFLCT
- amyloid nucleation score: 1.1 ± 0.13

Substance: CKYLPLRNYGSCSPGYGKYV
- amyloid nucleation score: inactive

Substance: CLFFKHLLLGDDVLLLTYLR
- amyloid nucleation score: inactive

Substance: CLFGLGVEAKVFIYQGDDQS
- amyloid nucleation score: inactive

Substance: CLFQIIVNTSYIGKFHTVLG
- amyloid nucleation score: 1.88 ± 0.057

Substance: CLFYIRS
- amyloid nucleation score: inactive

Substance: CLGIGWFWVPWRLGVYSQMV
- amyloid nucleation score: inactive

Substance: CLHEDCRMTADSLPSLRKDR
- amyloid nucleation score: inactive

Substance: CLLPFTTGYDFFLHQIEGWG
- amyloid nucleation score: inactive

Substance: CLLPVSVTLTASFLCQHVRY
- amyloid nucleation score: 0.004 ± 0.75

Substance: CLLVRTIMRVLYFWMES
- amyloid nucleation score: inactive

Substance: CLNNVLLASPPNCAGNL
- amyloid nucleation score: inactive

Substance: CLRSVDDWFKC
- amyloid nucleation score: inactive

Substance: CLSLYL
- amyloid nucleation score: inactive

Substance: CLTIHWTVFSGAARLSFIMT
- amyloid nucleation score: inactive

Substance: CLVNWPMWENPWSPHFGSNY
- amyloid nucleation score: inactive

Substance: CLVSTGYHVRCVIVFMTTQG
- amyloid nucleation score: inactive

Substance: CLYRGGFSFYDFSGFCVLSS
- amyloid nucleation score: inactive

Substance: CMGYRFC
- amyloid nucleation score: inactive

Substance: CMIELRSR
- amyloid nucleation score: inactive

Substance: CMLNRNFWVVYSHVGRRRL
- amyloid nucleation score: inactive

Substance: CMLSMFSCCCFDSPRRYCH
- amyloid nucleation score: 2.36 ± 0.051

Substance: CMSDF
- amyloid nucleation score: inactive

Substance: CMSRYVDSYFNLAYRDRFLW
- amyloid nucleation score: 0.451 ± 0.47

Substance: CMSTKTNFT
- amyloid nucleation score: inactive

Substance: CNAYLAYARYIYTHGWPRSL
- amyloid nucleation score: inactive

Substance: CNFDKTLRSHDDQLAVGITV
- amyloid nucleation score: inactive

Substance: CNFERFALCDYLSVLFNFQR
- amyloid nucleation score: 1.54 ± 0.13

Substance: CNGLFIGPML
- amyloid nucleation score: inactive

Substance: CNGLNRIVDLNWNMMSIMRS
- amyloid nucleation score: inactive

Substance: CNKYMKVCLGMGKVQTKNGV
- amyloid nucleation score: inactive

Substance: CNVLEKYTLE
- amyloid nucleation score: inactive

Substance: CNVNTLIFGRESNSSEHKHW
- amyloid nucleation score: 1.83 ± 0.081

Substance: CNVTLSSTYEK
- amyloid nucleation score: inactive

Substance: CNYSVVFCCNFWDYYLKECA
- amyloid nucleation score: 2.5 ± 0.06

Substance: CPRDNVSIVKWWLAYRDSHA
- amyloid nucleation score: inactive

Substance: CQIEILLPLDVLY
- amyloid nucleation score: 1.06 ± 0.09

Substance: CQLRGEFDSVAVNNVCIAML
- amyloid nucleation score: inactive

Substance: CQRPWNRTRR
- amyloid nucleation score: inactive

Substance: CQVGRKRLLYVFTGYK
- amyloid nucleation score: inactive

Substance: CQVWFTYYYLLGSTNDSMAR
- amyloid nucleation score: inactive

Substance: CRCMTR
- amyloid nucleation score: inactive

Substance: CRCPSYMFHA
- amyloid nucleation score: 0.703 ± 0.17

Substance: CRFKGCWYSRTLRRRRSVIV
- amyloid nucleation score: inactive

Substance: CRFSGCNESLGWKVGSTLVM
- amyloid nucleation score: inactive

Substance: CRGTWDNDAVGRVDRNSRKS
- amyloid nucleation score: inactive

Substance: CRIYCLLPISMIGSCSFIVH
- amyloid nucleation score: inactive

Substance: CRLANHLEIAVAVTSYEGED
- amyloid nucleation score: inactive

Substance: CRNESLACSKMSPSQRRSYT
- amyloid nucleation score: inactive

Substance: CRTQMPSIFDL
- amyloid nucleation score: inactive

Substance: CRVEVAICHRPLCSKVTLDG
- amyloid nucleation score: inactive

Substance: CSGIIRNMLWGV
- amyloid nucleation score: inactive

Substance: CSGQVQ
- amyloid nucleation score: inactive

Substance: CSIPFVWEIHHM
- amyloid nucleation score: inactive

Substance: CSKNRQSELRALGSYI
- amyloid nucleation score: inactive

Substance: CSLQNVTVGLLHSQVVSRWE
- amyloid nucleation score: inactive

Substance: CSLTCWSVVRVFQYEILRE
- amyloid nucleation score: inactive

Substance: CSLTKAVFQRQPLRRSKGTK
- amyloid nucleation score: inactive

Substance: CSLYNLDRVTWTG
- amyloid nucleation score: 0.219 ± 0.41

Substance: CSPGTSCFGIKPRSSLSTTI
- amyloid nucleation score: inactive

Substance: CSRLAQWFMLVSF
- amyloid nucleation score: inactive

Substance: CSRWMWPENYRFSSEVPWYI
- amyloid nucleation score: inactive

Substance: CSTISVTLALV
- amyloid nucleation score: inactive

Substance: CSWVGAMFVQWNLPAPTEGI
- amyloid nucleation score: 0.341 ± 0.37

Substance: CTDRRVRWGYGFKFRFGHGD
- amyloid nucleation score: inactive

Substance: CTLQYWGKIIPNERSRSRIV
- amyloid nucleation score: inactive

Substance: CTLRTVCHTGLLWVTFHRQY
- amyloid nucleation score: 0.675 ± 0.18

Substance: CTSCILYFLLIYYHYNSS
- amyloid nucleation score: inactive

Substance: CTSTLMEFSFSYEWSNGCCS
- amyloid nucleation score: inactive

Substance: CTVLKYFLRYRRSHDL
- amyloid nucleation score: inactive

Substance: CVAAV
- amyloid nucleation score: inactive

Substance: CVAKK
- amyloid nucleation score: inactive

Substance: CVEAEDNFVLLKEGHAAWDV
- amyloid nucleation score: inactive

Substance: CVEVY
- amyloid nucleation score: inactive

Substance: CVFKTNVNGLMEEVLSGFKY
- amyloid nucleation score: inactive

Substance: CVFPCMFLEFTMTDMKLYSS
- amyloid nucleation score: inactive

Substance: CVGVCKNLNRWFH
- amyloid nucleation score: inactive

Substance: CVLWYCCYTQLSMQKCNSRM
- amyloid nucleation score: inactive

Substance: CVNKFLSVPSIDSEDFCYLV
- amyloid nucleation score: inactive

Substance: CVPWWLNMPVLDCTLWNSSV
- amyloid nucleation score: inactive

Substance: CVTVNIELLTWITACGNFTL
- amyloid nucleation score: 1.62 ± 0.075

Substance: CVVGDPSGVK
- amyloid nucleation score: 0.62 ± 0.13

Substance: CVWAYLRLHGKWAF
- amyloid nucleation score: 0.598 ± 0.34

Substance: CVWILSQLG
- amyloid nucleation score: -0.797 ± 1.9

Substance: CWWCCATGTHSSSYIGRGVH
- amyloid nucleation score: 0.844 ± 0.24

Substance: CYDDRHENHHYGE
- amyloid nucleation score: inactive

Substance: CYEPVAGVFCMRIGLTVVGN
- amyloid nucleation score: inactive

Substance: CYFRVAHVLDSRILSRPGML
- amyloid nucleation score: inactive

Substance: CYIVGVVGLSTDWFMSGHSD
- amyloid nucleation score: 0.035 ± 0.9

Substance: CYMADNVLVGFTFVGIQEMK
- amyloid nucleation score: inactive

Substance: CYSVDRDV
- amyloid nucleation score: inactive

Substance: CYYTKVNVSS
- amyloid nucleation score: 0.021 ± 0.26

Substance: DAGELNILI
- amyloid nucleation score: inactive

Substance: DAHNRASLSYVPSYYVSFTA
- amyloid nucleation score: inactive

Substance: DAIRQTSHMKLRSSYMQARR
- amyloid nucleation score: inactive

Substance: DCCKFFLKDSRSRSFSWSIY
- amyloid nucleation score: 1.66 ± 0.08

Substance: DCDRILLV
- amyloid nucleation score: inactive

Substance: DCERVFSYMRKDQVPPVTLS
- amyloid nucleation score: inactive

Substance: DCFLLSTIVALYRDYRYIGT
- amyloid nucleation score: inactive

Substance: DCGKRSTTINFAWNGAVQPD
- amyloid nucleation score: 1.04 ± 0.18

Substance: DCMSHLLF
- amyloid nucleation score: inactive

Substance: DCSFMPTLYLGPTTFFFWHL
- amyloid nucleation score: 2.25 ± 0.064

Substance: DCTSILELVGGARPTHSGLE
- amyloid nucleation score: inactive

Substance: DCVYSSPCGVALIDLGAGLK
- amyloid nucleation score: inactive

Substance: DCYKRSVMLKAARSWVNRSL
- amyloid nucleation score: inactive

Substance: DDCIIRAGWDLLQR
- amyloid nucleation score: inactive

Substance: DDDLHWWKYRCVACDSLWEI
- amyloid nucleation score: inactive

Substance: DDGFYMSVGIVSWFC
- amyloid nucleation score: 0.843 ± 0.13

Substance: DDRVVPVLYQTCSAVRR
- amyloid nucleation score: inactive

Substance: DEMLHGCPDRVPNLGWY
- amyloid nucleation score: inactive

Substance: DERKNSIDSR
- amyloid nucleation score: inactive

Substance: DEYTSNVVSNFFEIRLWFFI
- amyloid nucleation score: inactive

Substance: DFARFIPFRPDFNFWGRLTG
- amyloid nucleation score: inactive

Substance: DFHSLKNDF
- amyloid nucleation score: inactive

Substance: DFMWLKGLNPSTLSLPWD
- amyloid nucleation score: inactive

Substance: DFTLTPMWRHFEGFNKVAWG
- amyloid nucleation score: inactive

Substance: DFWLHCGDK
- amyloid nucleation score: inactive

Substance: DFYRSEQGDWSNLHSC
- amyloid nucleation score: inactive

Substance: DGVALFNVVRFVVGIDILLI
- amyloid nucleation score: inactive

Substance: DHLQVHYCGRHVLGAKKFAR
- amyloid nucleation score: inactive

Substance: DHLSVWVSRLDTINCLREVG
- amyloid nucleation score: inactive

Substance: DHLWIPPWLYAPAMLWSWML
- amyloid nucleation score: inactive

Substance: DICEIRTTIRAC
- amyloid nucleation score: inactive

Substance: DIDRRQRVMHSPMKAWEEVG
- amyloid nucleation score: -0.045 ± 0.98

Substance: DIHVKNCVVCMYSG
- amyloid nucleation score: 2.44 ± 0.057

Substance: DIIYTFHHAVNRLNKIFSV
- amyloid nucleation score: inactive

Substance: DIVANYQMM
- amyloid nucleation score: inactive

Substance: DIVTTHVGKSLG
- amyloid nucleation score: inactive

Substance: DKGVVPL
- amyloid nucleation score: inactive

Substance: DKMIGWGDWSSLY
- amyloid nucleation score: inactive

Substance: DKTYYYRDDSLV
- amyloid nucleation score: inactive

Substance: DLFKCGRGHVIFVLSRLLIS
- amyloid nucleation score: -0.459 ± 1.1

Substance: DLGHQMVVRRHVLFLICCCN
- amyloid nucleation score: inactive

Substance: DLIGYSEEV
- amyloid nucleation score: 0.449 ± 0.19

Substance: DLISEKEQEPGRD
- amyloid nucleation score: 0.406 ± 0.21

Substance: DLKTWSMLSFFGMYATYLIK
- amyloid nucleation score: inactive

Substance: DLRCHGYC
- amyloid nucleation score: inactive

Substance: DLRSITMCWCIIPTGRCVVA
- amyloid nucleation score: inactive

Substance: DLSMGNCEVVGLESSTTICK
- amyloid nucleation score: inactive

Substance: DLTDNVFYWSRNTIDEVRVR
- amyloid nucleation score: inactive

Substance: DLTNEMQVCVNV
- amyloid nucleation score: -0.17 ± 0.88

Substance: DLWAIGWGPFRVCSLLPWPL
- amyloid nucleation score: inactive

Substance: DLYCMPLAAVLFGGGC
- amyloid nucleation score: inactive

Substance: DMGLYLFFIYLCGVRDLLST
- amyloid nucleation score: inactive

Substance: DMIVNYCTAQRSFVSIVSIK
- amyloid nucleation score: inactive

Substance: DMWKFTRLLFFCDSKRCSAD
- amyloid nucleation score: inactive

Substance: DNLTVTFRCLHAYLGGLDFD
- amyloid nucleation score: inactive

Substance: DNQFICLFVVEIGIVYDSYA
- amyloid nucleation score: inactive

Substance: DNSCVMMKTGGRYFELFRVV
- amyloid nucleation score: inactive

Substance: DNSSLSMK
- amyloid nucleation score: inactive

Substance: DNVSKSSIHTTLVLASFLCS
- amyloid nucleation score: 1.55 ± 0.11
